Test results from US11419945B2, “Antigen binding proteins” (Glaxo Group Limited, priority 2011, dated 2022).

Key:
[1] = molecular target: T1, human BCMA HEK293 (Homo sapiens, UniProt Q02223); assay: FMAT binding assay, human BCMA expressing HEK293 cells; details: range of antibody concentrations
T1 construct: expressed in transfected cells; host or cells: HEK293
T1 sequence (Q02223 1-184): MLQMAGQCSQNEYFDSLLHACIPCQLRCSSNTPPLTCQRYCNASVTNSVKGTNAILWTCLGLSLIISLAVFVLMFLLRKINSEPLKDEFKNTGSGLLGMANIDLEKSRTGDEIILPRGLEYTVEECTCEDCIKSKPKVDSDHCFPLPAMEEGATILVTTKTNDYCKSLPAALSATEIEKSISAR
Description: (§1) Cryopreserved transfected human, cyno BCMA and mock transfected HEK293 cells were recovered from LN2 storage. Assay wells were prepared with human chimeric CA8 antibody, at a range of different concentrations, mixed with human BCMA HEK293, cyno BCMA HEK293 and mock transfected cells respectively. Anti-human IgG FMAT Blue secondary conjugate was added for detection of human chimeric CA8. The assay plates were left for a minimum of 90 minutes before the result was read on the ABI8200 (FMAT) plate reader.

[2] = system: cyno BCMA HEK293; assay: FMAT binding assay, cyno BCMA expressing HEK293 cells; details: range of antibody concentrations
Description: as §1

[3] = molecular target: T2, Human BCMA-Fc (Homo sapiens, UniProt Q02223); assay: ELISA binding to recombinant human BCMA-Fc; details: 5 ug/ml to 0.1 ug/ml antibody
T2 construct: CD33 signal peptide (N); TEV site (internal)
Description: (§2) Chimeric CA8 antibodies were tested for binding to human BCMA and cyno BCMA expressed as Fc fusions. Human BCMA-Fc and cyno BCMA-Fc were coated to ELISA plates and the plates were blocked using BSA to reduce non specific binding. CA8 chimeric antibodies were added in a concentration range from 5 ug/ml to 0.1 ug/ml to the human and cyno BCMA coated ELISA plates. Any bound human chimeric CA8 antibody was detected using anti-human IgG HRP conjugated secondary antibody as appropriate. HRP substrate (TMB) was added to develop the ELISA.

[4] = system: cyno BCMA-Fc; assay: ELISA binding to recombinant cyno BCMA-Fc; details: 5 ug/ml to 0.1 ug/ml antibody
Description: as §2

[5] = system: multiple myeloma cell lines H929, OPM-2, JJN-3 and U266; assay: FACS binding curve of chimeric CA8 to multiple myeloma cells; set-up: species or system human; details: varying concentrations, 20 minutes at RT
Description: A panel of multiple myeloma cell lines were used to determine the binding of chimeric CA8. […] Cells were then washed with FACS buffer (PBS+0.5% BSA+0.1% sodium azide) to remove unbound antibody. Cells were incubated with a secondary PE labelled anti-human IgG antibody for 15 minutes at RT and then washed with FACS buffer to remove unbound antibody. Cells were analysed by FACS and mean fluorescence intensity (MFI) values measured to determine binding.

[6] = molecular target: T3, ARH77-hBCMA 10B5 BCMA expressing transfectant cells (Homo sapiens, UniProt Q02223); assay: FACS binding of humanised CA8 to BCMA transfected cells; details: varying concentrations, 20 minutes at RT
T3 construct: expressed in transfected cells; host or cells: ARH77 (clone 10B5)
T3 sequence (Q02223 1-184): T1 sequence (Q02223 1-184)
Description: (§3) ARH77-hBCMA 10B5 BCMA expressing transfectant cells or H929 cells were stained with either chimeric CA8 or humanised variants of CA8 designated J6M0, J6M1, J6M2, J9M0, J9M1, J9M2 at varying concentrations for 20 minutes at RT. Cells were then washed with FACS buffer (PBS+0.5% BSA+0.1% sodium azide) to remove unbound antibody. Cells were incubated with a secondary PE labelled anti-human IgG antibody for 15 minutes at RT and then washed with FACS buffer to remove unbound antibody. Cells were analysed by FACS and mean fluorescence intensity (MFI) values measured to determine binding.

[7] = system: H929 cells; assay: FACS binding of humanised CA8 to H929 cells; set-up: species or system human; details: varying concentrations, 20 minutes at RT
Description: as §3

[8] = molecular target: T4, Human commercial BCMA (Homo sapiens, UniProt Q02223); assay: ProteOn analysis of CA8 chimeric and humanised constructs, commercial human BCMA; type: binding; details: Run 2, commercial human BCMA, 25° C.
T4 construct: purchased US Biological B0410
T4 sequence (Q02223 1-184): T1 sequence (Q02223 1-184)
Description: The initial screen of CA8 chimeric and humanised variants was carried out on the ProteOn XPR36 (Biorad). The method was as follows; Protein A was immobilised on a GLC chip (Biorad, Cat No: 176-5011) by primary amine coupling, CA8 variants were then captured on this surface and recombinant human BCMA (in house or commercial US Biological, B0410) materials (run 2 only)) passed over at 256, 64, 16, 4, 1 nM with a 0 nM injection (i.e. buffer alone) used to double reference the binding curves, the buffer used is the HBS-EP buffer. 50 mM NaOH was used to regenerate the capture surface. The data was fitted to the 1:1 model using the analysis software inherent to the ProteOn XPR36. Run 1 corresponds to the first screen of humanised CA8 variants (JO to J5 series) and run 2 to the second screen of humanised CA8 variants (J5 to J9 series). Both runs were carried out at 25° C.

[9] = listed as human chimeric CA8 antibodies

T2 sequence (Q02223 with tags, fused parts or gaps): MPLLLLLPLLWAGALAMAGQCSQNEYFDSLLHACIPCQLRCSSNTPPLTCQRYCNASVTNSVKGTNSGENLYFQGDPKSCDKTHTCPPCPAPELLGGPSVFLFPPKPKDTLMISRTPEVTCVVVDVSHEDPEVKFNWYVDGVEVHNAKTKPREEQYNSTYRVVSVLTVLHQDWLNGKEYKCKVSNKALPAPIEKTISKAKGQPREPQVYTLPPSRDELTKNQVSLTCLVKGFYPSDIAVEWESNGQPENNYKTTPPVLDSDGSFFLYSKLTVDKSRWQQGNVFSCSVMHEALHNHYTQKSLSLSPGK
Sequence of cyno BCMA-Fc (as listed by the source): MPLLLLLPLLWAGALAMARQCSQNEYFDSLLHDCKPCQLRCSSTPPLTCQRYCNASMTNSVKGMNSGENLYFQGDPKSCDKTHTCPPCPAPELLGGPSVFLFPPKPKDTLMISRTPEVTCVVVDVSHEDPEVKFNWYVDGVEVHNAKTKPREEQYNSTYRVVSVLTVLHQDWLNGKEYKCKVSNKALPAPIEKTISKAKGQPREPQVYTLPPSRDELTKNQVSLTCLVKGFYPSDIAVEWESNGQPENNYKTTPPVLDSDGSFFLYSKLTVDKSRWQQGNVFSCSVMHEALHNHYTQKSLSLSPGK
Sequence of cyno BCMA HEK293 (as listed by the source): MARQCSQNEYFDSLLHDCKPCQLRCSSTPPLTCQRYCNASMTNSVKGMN

B1: CA8 Chimera: chimeric anti-BCMA antibody: murine CA8 VH (SEQ ID NO:7) and VL (SEQ ID NO:9) on human γ1 and kappa constant regions (antibody, V domains shown)
VH: EVQLQQSGAVLARPGASVKMSCKGSGYTFTNYWMHWVKQRPGQGLEWIGATYRGHSDTYYNQKFKGKAKLTAVTSTSTAYMELSSLTNEDSAVYYCTRGAIYNGYDVLDNWGQGTLVTVSS
VL: DIQLTQTTSSLSASLGDRVTISCSASQDISNYLNWYQQKPDGTVELVIYYTSNLHSGVPSRFSGSGSGTDYSLTIGYLEPEDVATYYCQQYRKLPWTFGGGSKLEIKR
modifications: human IgG1 and kappa constant regions; mus musculus
- binding to human BCMA expressed on HEK293 cells [1]: binds well
- binding to cyno BCMA expressed on HEK293 cells [2]: binds well
- binding to recombinant human BCMA (ELISA) ([3]; listed as Chimeric CA8): binds to recombinant human and cyno BCMA
- binding to recombinant human BCMA (ELISA) [3, 9]: bind to human and cyno BCMA proteins equally
- binding to recombinant cyno BCMA (ELISA) ([4]; listed as Chimeric CA8): binds to recombinant human and cyno BCMA
- binding to recombinant cyno BCMA (ELISA) [4, 9]: bind to human and cyno BCMA proteins equally
- binding to multiple myeloma cell lines by FACS (MFI) [5]: bound to multiple myeloma cell lines H929, OPM-2, JJN-3 & U266 in a dose dependent manner
- dose dependent binding to ARH77-hBCMA 10B5 cells by FACS (MFI) [6]: bound
- dose dependent binding to H929 cells by FACS (MFI) [7]: bound
- ka ([8]; in M-1s-1 (unit assumed)): 7.05E+05
- kd ([8]; in s-1 (unit assumed)): 9.79E−05
